PMC9305336

How the values were obtained:
[1] = biological target: recombinant His-tagged histone H3/H4 (human) (UniProt P68431); assay: SEC-MALS; Enrich SEC 70 column in high salt HBS buffer (20 mM Hepes pH 7.5, 2 M NaCl, 1 mM TCEP, 5% glycerol); TSPYL5-NLD alone, H3/H4 alone (H3/H4 dimers to tetramer) and the coexpressed, co-purified complex
[2] = tested on: TSPYL5-NLD (Homo sapiens); assay: EMSA; conditions: 10 mM Hepes pH 7.5, 200 mM NaCl, 1 mM TCEP, 5% glycerol, 0.5 mM EDTA; 30 min on ice then 20 min at 25 °C; 6% native Tris-glycine PAGE, GelGreen stain

Substance	Kd [2] [nM]	further results
His-SUMO-tagged TSPYL5-NLD (from UniProt Q86VY4 198-388) (domain or fragment)	–	stoichiometry N (TSPYL5 : 2 H3 : 2 H4) [1]: 2
146 bp DNA	380	–
80 bp DNA	500	–
recombinant His-tagged histone H3/H4 (from UniProt P68431 1-136; P62805 1-103) (complex)	–	stoichiometry N [1]: 4
